Measured values from US20090317382A1 (Genmab, published 2009).

Columns and labels:
human C1q [1] = molecular target: T1, human C1q (human, UniProt P02745 23-245; P02746 28-253; P02747 29-245); experiment: ELISA: IgG coated at varied concentration, C1q binding read as OD405; sheet heading '3% human serum'
T1 construct: The method names purified human C1q at 2 µg/ml; also called C1q (Quidel, A400); first component of the classical complement system

[2] = molecular target: T2, human AChR from membrane extracts of TE671 cells (human, UniProt P02708 21-457; P11230 24-501; P07510 23-517; Q07001 22-517)
[3] = molecular target: T2, human AChR from membrane extracts of …; remark: listed apart in the source
[4] = molecular target: T2, human AChR from membrane extracts of …; remark: listed apart in the source
C1q (3% rhesus serum) = molecular target: T3, C1q (3% rhesus serum) (Macaca mulatta); experiment: ELISA: IgG coated at varied concentration (the concentration is that of the coating), C1q binding read as OD405, 3% rhesus serum
T3 construct: native protein in 3% serum; also called rhesus C1q; C1q of rhesus monkey serum
Procedure: (§1) Subsequently, plates were emptied. For the C3 and C4 ELISAs the wells were washed 3 times with 200 μl PBST (PBS supplemented with 0.05% (v/v) tween-20). Subsequently, for C1q ELISA, wells were incubated with 2 μg/mi human C1q (Quidel, San Diego, Calif., USA, A400) in C1q buffer (100 μl/well, 37° C., 1 h). […] After washing the plates (3×) with PBST for the C3 and C4 ELISA and C1q buffer for the C1q ELISA, for the C1q ELISA wells were incubated with rabbit anti-human C1q (DAKO, Glostrup, Denmark, A0136), diluted in C1q buffer (1:1000, 100 μl/well, room temperature, 1 h). […] After washing the plates (3×) with PBST for the C3 and C4 ELISA and C1q buffer for the C1q ELISA, for the C1q ELISA wells were incubated with HRP-conjugated swine anti-rabbit IgG-Fc (DAKO, P0399) diluted in ELISA buffer (1:2500, 100 μl/well, room temperature, 1 h). […] Absorbance was measured at 405 nm in an ELISA plate reader (Biotek Instruments Inc., Winooski, USA). To analyze, if complement activation by human IgG isotypes depends on the source of the complement, both human and rhesus serum were tested.

human C1q [5] = molecular target: T1, human C1q; experiment: ELISA: IgG coated at varied concentration (the concentration is that of the coating), C1q binding read as OD405, 3% human serum
Procedure: as §1

AChR of rhesus monkeys = molecular target: T4, AChR of rhesus monkeys (rhesus monkey (Macaca mulatta)); experiment: immunohistochemistry of endplates in human and monkey biopsies, qualitative comparison of staining intensities
T4 construct: In muscle tissue (sections of biopsies, or in the living animal); also called macaque AChR; monkey receptor

T1 sequence (P02745 23-245 limits assumed, chain 1 of 3): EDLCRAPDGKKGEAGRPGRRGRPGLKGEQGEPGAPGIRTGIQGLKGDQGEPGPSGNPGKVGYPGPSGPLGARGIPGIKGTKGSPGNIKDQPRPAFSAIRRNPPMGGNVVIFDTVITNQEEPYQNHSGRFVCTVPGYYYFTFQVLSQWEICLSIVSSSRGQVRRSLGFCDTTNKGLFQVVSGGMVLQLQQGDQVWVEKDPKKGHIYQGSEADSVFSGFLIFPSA
T1 sequence (P02746 28-253 limits assumed, chain 2 of 3): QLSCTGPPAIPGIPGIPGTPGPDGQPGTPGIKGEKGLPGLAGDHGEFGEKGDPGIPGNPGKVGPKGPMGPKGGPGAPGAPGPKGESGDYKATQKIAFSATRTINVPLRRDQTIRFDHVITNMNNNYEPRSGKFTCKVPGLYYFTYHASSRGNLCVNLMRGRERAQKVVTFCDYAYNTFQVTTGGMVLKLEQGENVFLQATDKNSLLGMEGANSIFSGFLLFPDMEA
T1 sequence (P02747 29-245 limits assumed, chain 3 of 3): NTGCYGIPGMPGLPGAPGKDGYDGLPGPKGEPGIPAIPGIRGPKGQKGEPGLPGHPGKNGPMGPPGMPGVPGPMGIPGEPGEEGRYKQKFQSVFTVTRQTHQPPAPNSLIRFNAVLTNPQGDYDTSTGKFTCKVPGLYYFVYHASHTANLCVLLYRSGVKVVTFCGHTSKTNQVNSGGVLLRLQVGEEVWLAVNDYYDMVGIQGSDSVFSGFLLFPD

B1: IgG4-637 (antibody)
heavy: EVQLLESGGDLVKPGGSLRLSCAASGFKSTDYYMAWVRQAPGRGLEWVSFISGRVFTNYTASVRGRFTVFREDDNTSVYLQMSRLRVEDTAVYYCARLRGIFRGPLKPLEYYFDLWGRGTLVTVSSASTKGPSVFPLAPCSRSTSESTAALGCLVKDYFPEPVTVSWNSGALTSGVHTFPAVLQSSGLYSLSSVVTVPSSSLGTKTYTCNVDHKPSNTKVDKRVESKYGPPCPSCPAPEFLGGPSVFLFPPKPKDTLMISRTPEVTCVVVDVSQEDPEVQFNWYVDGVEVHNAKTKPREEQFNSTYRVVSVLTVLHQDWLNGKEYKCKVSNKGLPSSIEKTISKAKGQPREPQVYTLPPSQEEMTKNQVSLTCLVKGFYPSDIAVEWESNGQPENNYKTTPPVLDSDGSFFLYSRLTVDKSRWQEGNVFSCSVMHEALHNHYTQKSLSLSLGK
light: EIELTQPHSVSESPGKTVTISCTRSSGSIASNYVQWYQQRPGSSPTTVIYEDNQRPSGVPDRFSGSIDSSSNSASLTISGLKTEDEADYYCQSYDSNSGGRVFGGGTKLTVLGQPKAAPSVTLFPPSSEELQANKATLVCLISDFYPGAVTVAWKADSSPVKAGVETTTPSKQSNNKYAASSYLSLTPEQWKSHRSYSCQVTHEGSTVEKTVAPTECS
notes: also called anti-MG
- binding result (human C1q [1]): no binding
- EC50 (read off the curve) [2]: ~3 nM
- Kd [3]: ~1.7 nM
- precipitation of the flag tagged antibody, percent remaining at two fold excess [3]: ~50%
- IC50 (read off the curve) [4]: ~10 nM

B2: IgG1-637 (antibody)
heavy: not shown
VL: EIELTQPHSVSESPGKTVTISCTRSSGSIASNYVQWYQQRPGSSPTTVIYEDNQRPSGVPDRFSGSIDSSSNSASLTISGLKTEDEADYYCQSYDSNSGGRVFGGGTKLTVL
- EC50 (read off the curve) (C1q (3% rhesus serum)): ~2 µg/mL
- EC50 (read off the curve) (human C1q [5]): ~2 µg/mL
- EC50 (read off the curve) [2]: ~3 nM
- Kd [3]: ~1.7 nM
- precipitation of the flag tagged antibody, percent remaining at two fold excess [3]: ~50%
- IC50 (read off the curve) [4]: ~10 nM
- fold reduced affinity compared to human receptor (AChR of rhesus monkeys): ~10 fold
